Where a chain is given by its changes, count along the chain named.
B1: BIIB-9-882 (antibody, V domains shown)
VH: QVQLVQSGAEVKKPGASVKVSCKASGYTFTSYYMHWVRQAPGQGLEWMGIINPSGGSTSYAQKFQGRVTMTRDTSTSTVYMELSSLRSEDTAVYYCARGPTDSSGYLDMDVWGKGTTVTVSS
VL: EIVMTQSPATLSVSPGERATLSCRASQSVSSNLAWYQQKPGQAPRLLIFGASTRATGIPARFSGSGSGTEFTLTISSLQSEDFAVYYCQQHDNFPPTFGGGTKVEIK
notes: IgG
B2: BIIB-9-889 (antibody, V domains shown)
VH: QLQLQESGPGLVKPSETLSLTCTVSGGSISSSSYYWGWIRQPPGKGLEWIGSIYYSGSTYYNPSLKSRVTISVDTSKNQFSLKLSSVTAADTAVYYCARDVGWYTEYFDLWGRGTLVTVSS
VL: B1 VL with F49Y, H91A, D92F, F94W
notes: IgG
B3: BIIB-9-888 (antibody, V domains shown)
VH: B1 VH
VL: B1 VL with F49Y, S80P, H91A, D92F, F94W
notes: IgG
B4: BIIB-9-886 (antibody, V domains shown)
VH: QVQLVQSGAEVKKPGASVKVSCKASGYTFTSYYMHWVRQAPGQGLEWMGIINPSGGSTSYAQKFQGRVTMTRDTSTSTVYMELSSLRSEDTAVYYCARDPAHSYLDAFDIWGQGTMVTVSS
VL: DIQMTQSPSSVSASVGDRVTITCRASQGISSWLAWYQQKPGKAPKLLIYAASSLQSGVPSRFSGSGSGTDFTLTISSLQPEDFATYYCQQASSFPFTFGGGTKVEIK
notes: IgG
B5: BIIB-9-887 (antibody, V domains shown)
VH: QVQLVQSGAEVKKPGASVKVSCKASGYTFTSYYMVWVRQAPGQGLEWMGIINPSGGSTSYAQKFQGRVTMTRDTSTSTVYMELSSLRSEDTAVYYCARDAEAHWIPGMDVWGQGTTVTVSS
VL: B4 VL
notes: IgG
B6: BIIB-9-433 (antibody, V domains shown)
VH: B2 VH with S33R, V101A, W103Y, Y104S, T105A, Y107L, L110Y, R113Q
VL: EIVLTQSPATLSLSPGERATLSCRASQSVSSYLAWYQQKPGQAPRLLIYDASNRATGIPARFSGSGSGTDFTLTISSLEPEDFAVYYCQQSSAYPPTFGGGTKVEIK
notes: IgG
B7: BIIB-9-628 (antibody, V domains shown)
VH: QVQLVQSGAEVKKPGASVKVSCKASGYTFTSYYMHWVRQAPGQGLEWMGIINPSGGSTSYAQKFQGRVTMTRDTSTSTVYMELSSLRSEDTAVYYCAREPIAYGATLDLWGRGTLVTVSS
VL: EIVLTQSPGTLSLSPGERATLSCRASQSVSSDYLAWYQQKPGQAPRLLIYGASSRATGIPDRFSGSGSGTDFTLTISRLEPEDFAVYYCQQYVVFPFTFGGGTKVEIK
notes: IgG
B8: BIIB-9-884 (antibody, V domains shown)
VH: QLQLQESGPGLVKPSETLSLTCTVSGGSISSSDYYWGWIRQPPGKGLEWIGSIYYSGSTYYNPSLKSRVTISVDTSKNQFSLKLSSVTAADTAVYYCARSPRHKVRGPNWFDPWGQGTLVTVSS
VL: B7 VL with D32S, V93H, V94L, F95L, F97P
notes: IgG

Molecular target: T1, FIXa-SM (FIXa+EGR-CMK) (human, UniProt P00740 47-191; P00740 227-461, EGR-CMK (L-Glu-Gly-Arg chloromethyl ketone) covalently bound to the active site)
T1 construct: BLI antigen bought from Haematologic Technologies (HCIXA-EGR); also called FIXa with substrate mimic
Assay: BLI; class meaning: paragraph 914

Binding result, binds:
B1
B2
B3
B4
B5
B6
B7
B8

Molecular target: T2, free FIXa (activated Factor IX) (human, UniProt P00740 47-191; P00740 227-461)
T2 construct: BLI antigen bought from Haematologic Technologies (HCIXA-0050); also called factor IXa
Assay: BLI; class meaning: paragraph 914

Binding result, binds:
B1
B2
B3
B4
B5
B6
B7
B8
